Measurements: patent EP4810052A2 (Gubra A/S, dated 2026)
Like-named read-outs stand apart in the source and are kept apart here. Starred links: 1 amine or outer side, 2 acyl side, 3 side chain; linkers in the order of their positions; H or OH if unused. Non-standard residues stand in square brackets, D forms with d. Groups on a side chain read outwards from the residue. No end group written: not given here. *: point of attachment. C20 diacid = O=C(O)CCCCCCCCCCCCCCCCCCC(=O)*; γGlu = O=C(O)[C@H](CCC(=O)[*:2])N[*:1]; NMeI = CC[C@H](C)[C@H](NC)C(=O)O; Nle = CCCC[C@H](N)C(=O)O; lip = not defined here; AEEA = NCCOCCOCC(=O)O; Aib = CC(C)(N)C(=O)O

T1: human corticotropin-releasing hormone receptor 1 (human, UniProt P34998 24-415)
T1 sequence (looked up): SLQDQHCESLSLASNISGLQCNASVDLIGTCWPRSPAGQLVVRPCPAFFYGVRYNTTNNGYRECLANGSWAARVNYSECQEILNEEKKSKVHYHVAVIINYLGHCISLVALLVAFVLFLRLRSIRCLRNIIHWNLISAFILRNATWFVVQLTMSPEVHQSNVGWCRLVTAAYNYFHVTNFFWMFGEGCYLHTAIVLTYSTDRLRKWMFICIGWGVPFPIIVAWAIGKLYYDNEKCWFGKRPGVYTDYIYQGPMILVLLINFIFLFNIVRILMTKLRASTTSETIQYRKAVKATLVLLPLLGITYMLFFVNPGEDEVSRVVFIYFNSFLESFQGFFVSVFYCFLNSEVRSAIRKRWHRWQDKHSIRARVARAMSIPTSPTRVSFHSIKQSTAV

T2: mouse CRH receptor 1 (mouse, UniProt P35347 24-415)
T2 sequence (looked up): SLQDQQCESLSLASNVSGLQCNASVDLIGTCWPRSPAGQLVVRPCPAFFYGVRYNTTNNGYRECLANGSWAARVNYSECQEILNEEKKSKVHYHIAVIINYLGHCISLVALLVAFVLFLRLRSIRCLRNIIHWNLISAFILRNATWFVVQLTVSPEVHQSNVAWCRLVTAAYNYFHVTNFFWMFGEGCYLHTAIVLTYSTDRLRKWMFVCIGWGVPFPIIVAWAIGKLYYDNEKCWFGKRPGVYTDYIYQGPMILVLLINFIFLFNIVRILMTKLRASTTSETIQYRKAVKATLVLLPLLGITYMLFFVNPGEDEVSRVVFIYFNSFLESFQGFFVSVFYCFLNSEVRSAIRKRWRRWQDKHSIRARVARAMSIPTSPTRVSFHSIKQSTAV

T3: rat CRH receptor 1 (rat, UniProt P35353 24-415)
T3 sequence (looked up): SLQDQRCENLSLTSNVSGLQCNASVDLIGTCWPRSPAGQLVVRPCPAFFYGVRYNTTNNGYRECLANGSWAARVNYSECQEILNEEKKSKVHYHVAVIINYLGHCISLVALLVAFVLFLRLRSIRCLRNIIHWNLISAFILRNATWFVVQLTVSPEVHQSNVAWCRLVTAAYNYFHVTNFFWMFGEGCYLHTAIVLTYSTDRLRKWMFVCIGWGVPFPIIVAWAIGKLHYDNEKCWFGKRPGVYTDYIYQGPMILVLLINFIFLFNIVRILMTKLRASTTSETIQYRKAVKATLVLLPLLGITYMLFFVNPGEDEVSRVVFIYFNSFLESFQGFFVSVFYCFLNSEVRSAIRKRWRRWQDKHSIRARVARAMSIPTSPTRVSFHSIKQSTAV

B1: SEQ ID NO: 20 (peptide)
peptide: [NMeI]VLSLDVPIGLLQILLEQARARAAREQAK[Aib]NAEILAEV-NH2
modifications: not fully specified (residue 29); also: lipid and spacer on Lys29 not given here
B2: SEQ ID NO: 19 (peptide)
peptide: IVLSLDVPIGLLQILLEQARARAAREQAK[Aib]NAEILAEV-NH2
modifications: not fully specified (residue 29); also: lipid and spacer on Lys29 not given here
B3: SEQ ID NO: 238, PVLSLDVPIGLLQILLSQARARAAREQA[K*][Aib]NAEI[Nle]AEV(NH2) (peptide)
peptide: PVLSLDVPIGLLQILLSQARARAAREQAK[Aib]NAEI[Nle]AEV-NH2
modifications: not fully specified (residue 29); printed as PVLSLDVPIGLLQILLSQARARAAREQA[K*][Aib]NAEI[Nle]AEV(NH_2); also: lipid and spacer on Lys29 not given here
B4: SEQ ID NO: 16, [MeI]VLSLDVPIGLLQILLEQARARAAREQA[K*]TN[Aib]EILAEV(NH2) (peptide)
peptide: [NMeI]VLSLDVPIGLLQILLEQARARAAREQAK(lip)TN[Aib]EILAEV-NH2
modifications: reading uncertain; also: printed as [MeI]VLSLDVPIGLLQILLEQARARAAREQA[K*]TN[Aib]EILAEV(NH2)
B5: SEQ ID NO: 215, [MeI]VLSLDVPIGLLQILLSQARARAAREQA[K*]TN[Aib]EI[Nle]AEV(NH2) (peptide)
peptide: [NMeI]VLSLDVPIGLLQILLSQARARAAREQAK([AEEA-AEEA-γGlu-γGlu-C20 diacid])TN[Aib]EI[Nle]AEV-NH2
modifications: not fully specified; printed as [MeI]VLSLDVPIGLLQILLSQARARAAREQA[K*]TN[Aib]EI[Nle]AEV(NH_2)
B6: SEQ ID NO: 6, [MeI]VLSLDVPIGLLQILLEQARARAAREQAT[K*]NAEILAEV(NH2) (peptide)
peptide: [NMeI]VLSLDVPIGLLQILLEQARARAAREQATKNAEILAEV-NH2
modifications: not fully specified (residue 30); printed as [MeI]VLSLDVPIGLLQILLEQARARAAREQAT[K*]NAEILAEV(NH_2); also: lipid and spacer on Lys30 not given here

Assays:
Assay in all cases: cell-based or functional assay
[1] = biological target: T1, human corticotropin-releasing hormone …
[2] = biological target: T1, human corticotropin-releasing hormone …; remark: listed apart in the source
mouse CRH receptor 1 = biological target: T2, mouse CRH receptor 1
porcine CRH receptor 1 = porcine CRH receptor 1 (pig)
rat CRH receptor 1 = biological target: T3, rat CRH receptor 1
[3] = biological target: T1, human corticotropin-releasing hormone …; remark: listed apart in the source
[4] = biological target: T1, human corticotropin-releasing hormone …; remark: listed apart in the source

Binder | hCRHR1 EC50 (nM); HTRF cAMP assay, CHO-K1 cells stably expressing hCRHR1 [1] | hCRHR1 EC50 (nM); HTRF cAMP assay, CHO-K1 cells stably expressing hCRHR1 [2] | Transient cell system EC50 (nM), mCRHR1; cAMP assay, transiently transfected CHO-K1 cells (mouse CRH receptor 1) | Transient cell system EC50 (nM), pCRHR1; cAMP assay, transiently transfected CHO-K1 cells (porcine CRH receptor 1) | Transient cell system EC50 (nM), rCRHR1; cAMP assay, transiently transfected CHO-K1 cells (rat CRH receptor 1) | Stable EC50 (nM), hCRHR1; cAMP assay, stable CHO-K1 cells [3] | Transient cell system EC50 (nM), hCRHR1; cAMP assay, transiently transfected CHO-K1 cells [3] | hCRHR1 EC50 (nM); HTRF cAMP assay, CHO-K1 cells stably expressing hCRHR1 [4]
B1 | > 5000 nM |  |  |  |  |  |  | 
B2 | > 5000 nM |  |  |  |  |  |  | 
B3 |  | > 5000 nM | 323 nM | > 5000 nM | > 1000 nM | > 5000 nM | > 5000 nM | 
B4 | > 5000 nM |  | 76 nM | > 5000 nM | 256 nM | > 5000 nM | > 1000 nM | 
B5 |  | > 5000 nM | 50 nM | > 1000 nM | 175 nM | > 5000 nM | 826 nM | 
B6 | > 5000 nM |  | 71 nM | > 5000 nM | 275 nM | > 5000 nM | > 1000 nM | > 5000 nM
IVLSLDVPIGLLQILLEQARARAAREQAK(lip)TNAEILAEV-NH2 (not fully specified; reading uncertain) [SEQ ID NO: 3 (Lipidated UCN2 with X^36 = E; X^40 = E) (reference 1)] | > 5000 nM | > 5000 nM | 44 nM | > 5000 nM | 163 nM | > 5000 nM | > 1000 nM | > 5000 nM
